One series has as its target T1, GST-RB18A-N2 (Homo sapiens, UniProt Q15648 SEQ:1234-1566).
T1 chain: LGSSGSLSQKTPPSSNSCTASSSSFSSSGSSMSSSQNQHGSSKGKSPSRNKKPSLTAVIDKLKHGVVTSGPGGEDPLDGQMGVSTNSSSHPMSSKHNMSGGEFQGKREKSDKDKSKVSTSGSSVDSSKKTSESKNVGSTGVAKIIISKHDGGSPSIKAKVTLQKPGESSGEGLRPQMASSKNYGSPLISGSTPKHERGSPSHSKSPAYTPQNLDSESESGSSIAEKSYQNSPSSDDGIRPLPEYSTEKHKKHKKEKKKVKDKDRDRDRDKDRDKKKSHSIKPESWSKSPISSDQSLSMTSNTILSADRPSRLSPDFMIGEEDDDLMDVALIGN
Kind of series: EMSA; no direct interaction with p53 oligonucleotide. Particulars: tags: N-terminal GST; label: 32P; EcoRI-compatible ends. As to the method:
(§1) Part A: four μl of in vitro translated products of wild-type p53 (lanes 2, 5-10) or Luciferase (lanes 3-4) cDNAs were incubated for 20 min at room temperature with 0.2 μg of PAb421 (lane 5) or PAb1801 (lane 6) moAbs or with 1 μg of GST-RB18A-N2 (lanes 4, 7, 8 and 9) or GST-RB18A-Nl1 (lane 10) proteins. Then, a radiolabeled oligonucleotide (0.4 ng per lane) containing the consensus DNA binding site of p53 was added for 20 min at 4° C.
(§2) EMSA was performed as follows. Translated product (4 μl) was pre-incubated for 20 min at room temperature with 1 μg of GST-RB18A fusion protein or 0.2 μg of moAb in a final reaction volume of 14 μl of buffer A (25 mM Tris, pH 7.4, 80 mM KCl, 0.1 mM EDTA, 1 mM DTT and 10% glycerol). Then, 6 μl of buffer B (80 mM KCl, 16.6 mM MgCl₂ and 3 mg/ml BSA) containing 0.4 ng of labeled oligonucleotide and 0.5 μg of poly(dl-dC) were added and incubation was carried out for 20 min at 4° C. Reaction products were run for 15 min at 200 V on a 4% polyacrylamide gel containing 0.4×Tris-Borate-EDTA (90 mM Tris, 64.6 mM Borate, 2.5 mM EDTA, pH 8.3).
For orientation: A gel shift assay detects complexes by their altered migration in electrophoresis.

The next series addresses p53 wild-type (Homo sapiens, UniProt P04637 P04637:1-393). The series can be described thus: competition; non-specific oligo did not inhibit the complex with n1. Particulars: tags: none; plasmid pSP65-p53H8; chain copies: 4. As to the method: as §1, §2

p53 wild-type, sequence (P04637 whole entry, one chain of several): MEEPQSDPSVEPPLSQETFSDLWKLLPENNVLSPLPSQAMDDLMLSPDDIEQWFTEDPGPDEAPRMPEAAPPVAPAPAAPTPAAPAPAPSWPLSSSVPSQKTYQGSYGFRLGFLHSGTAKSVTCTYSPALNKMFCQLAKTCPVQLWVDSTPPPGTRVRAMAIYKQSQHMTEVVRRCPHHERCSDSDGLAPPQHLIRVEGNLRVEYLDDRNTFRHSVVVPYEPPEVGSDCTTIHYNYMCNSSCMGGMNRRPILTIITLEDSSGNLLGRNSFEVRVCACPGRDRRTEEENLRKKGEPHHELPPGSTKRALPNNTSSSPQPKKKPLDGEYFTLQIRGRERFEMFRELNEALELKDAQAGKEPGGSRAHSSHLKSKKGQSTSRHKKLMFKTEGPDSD

B1: PG p53 consensus oligonucleotide (dsDNA)
DNA 1: AATTCAGACATGCCTAGACATGCCTG
DNA 2: CAGGCATGTCTAGGCATGTCTGAATT
B1: the binding result in the series with GST-RB18A-N2 is “no binding”.

B2: TL non-specific competitor (dsDNA)
DNA 1: TATGTCTAAGGGACCTGCGGTTGGCATTGATCTTG
DNA 2: CAAGATCAATGCCAACCGCAGGTCCCTTAGACATA
B2: in the series with p53 wild-type, the binding result is recorded as “no binding”.
